Binding signal (% sedimented data for one substance are collected here from paper PMC3079743.

This data set concerns TRF2DBD+L. The data set can be described thus: differential centrifugation. The settings on record: self-association; agarose gel binding detected at 10-fold lower concentration; EMSA buffer composition not in the material (AFM incubations: without Mg2+ and KCl, 30 min, room temperature); strand insertion assay: 50 mM HEPES, 100 mM …. For orientation: In EMSA bound probe runs differently from free probe, usually more slowly.

As to “pRST5 2 kb telomeric fragment, histone-free (Tel DNA)”, the binding signal (% sedimented at up to 1 uM) came out at 20.
